The target in one series is TRIM25 PRY/SPRY (UniProt Q14258 439-630). Kind of series: ITC; ITC and filter binding: 20 mM MES pH 6.5, 75 mM NaCl, 0.5 mM TCEP (ITC 20 C, filter binding on ice); NMR: 20 mM Na phosphate pH 6.5, 150 mM NaCl, 2 mM TCEP, 293 K. The conditions noted are these: protein: recombinant; tags: His-Trx (removed); chain copies: 3; hairpin.
For a further series, the target named is TRIM25 CC (UniProt Q14258 189-379). Described as above. The conditions noted are these: protein: recombinant; tags: His-Trx (removed); chain copies: 2; hairpin.
TRIM25 CC, sequence (Q14258 189-379): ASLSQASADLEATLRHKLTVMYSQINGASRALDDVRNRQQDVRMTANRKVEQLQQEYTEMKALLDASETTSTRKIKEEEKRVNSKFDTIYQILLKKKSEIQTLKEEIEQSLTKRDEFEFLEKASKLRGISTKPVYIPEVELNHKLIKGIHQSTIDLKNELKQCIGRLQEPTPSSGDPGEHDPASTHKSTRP
Series [1] addresses T1, TRIM25 CC-PRY/SPRY (UniProt Q14258 189-630). The experiment in a line: filter binding; ITC and filter binding: 20 mM MES pH 6.5, 75 mM NaCl, 0.5 mM TCEP (ITC 20 C, filter binding on ice); NMR: 20 mM Na phosphate pH 6.5, 150 mM NaCl, 2 mM TCEP, 293 K. The conditions noted are these: protein: recombinant; tags: His-Trx (removed); chain copies: 2; hairpin.
For series [2], the target named is T1, TRIM25 CC-PRY/SPRY. The experiment in a line: ITC; highest affinity site; ITC and filter binding: 20 mM MES pH 6.5, 75 mM NaCl, 0.5 mM TCEP (ITC 20 C, filter binding on ice); NMR: 20 mM Na phosphate pH 6.5, 150 mM NaCl, 2 mM TCEP, 293 K. The conditions noted are these: protein: recombinant; tags: His-Trx (removed); chain copies: 2; hairpin. For orientation: In ITC the heat of successive injections is recorded.

Series [3] deals with T2, TRIM25 CC-PRY/SPRY triple mutant (UniProt Q14258 189-630, H505E;K508E;K602E). Kind of series: ITC; second fitted site; ITC and filter binding: 20 mM MES pH 6.5, 75 mM NaCl, 0.5 mM TCEP (ITC 20 C, filter binding on ice); NMR: 20 mM Na phosphate pH 6.5, 150 mM NaCl, 2 mM TCEP, 293 K. The conditions noted are these: protein: recombinant; tags: His-Trx (removed); chain copies: 2; hairpin.
T2 sequence (Q14258 189-630 H505E/K508E/K602E): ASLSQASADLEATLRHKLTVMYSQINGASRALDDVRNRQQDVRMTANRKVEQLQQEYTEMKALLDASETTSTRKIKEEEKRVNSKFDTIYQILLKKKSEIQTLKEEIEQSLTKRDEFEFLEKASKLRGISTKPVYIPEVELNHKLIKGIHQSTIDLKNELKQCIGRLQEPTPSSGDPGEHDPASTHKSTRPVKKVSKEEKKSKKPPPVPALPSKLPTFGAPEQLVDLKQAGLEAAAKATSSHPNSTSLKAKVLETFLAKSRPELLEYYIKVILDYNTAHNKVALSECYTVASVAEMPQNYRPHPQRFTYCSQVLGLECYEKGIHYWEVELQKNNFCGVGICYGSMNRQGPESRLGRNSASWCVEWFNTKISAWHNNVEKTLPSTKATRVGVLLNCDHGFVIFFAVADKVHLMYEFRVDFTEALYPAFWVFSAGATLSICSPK

Series [4] has as its target T3, TRIM25 CC-PRY/SPRY H505E/K508E (UniProt Q14258 189-630, H505E;K508E). The series is described as above. The conditions noted are these: protein: recombinant; tags: His-Trx (removed); chain copies: 2; hairpin.
For series [5], the target named is T4, TRIM25 CC-PRY/SPRY Y463S/Y476S (UniProt Q14258 189-630, Y463S;Y476S). The description is as above. The conditions noted are these: protein: recombinant; tags: His-Trx (removed); chain copies: 2; hairpin.
T4 sequence (Q14258 189-630 Y463S/Y476S): as the sequence (Q14258 189-630 H505E/K508E/K602E) above, with Y275S, Y288S, E317H, E320K, E414K counted along it
The target of series [6] is T5, TRIM25 CC-PRY/SPRY penta-mutant (UniProt Q14258 189-630, K283A;K285A;H505E;K508E;K602E). The series is described as above. The conditions noted are these: protein: recombinant; tags: His-Trx (removed); chain copies: 2; hairpin.
T5 sequence (Q14258 189-630 K283A/K285A/H505E/K508E/K602E): as the sequence (Q14258 189-630 H505E/K508E/K602E) above, with K95A, K97A counted along it
The target in series [7] is T6, TRIM25 CC-PRY/SPRY K602E (UniProt Q14258 189-630, K602E). Described as above. The conditions noted are these: protein: recombinant; tags: His-Trx (removed); chain copies: 2; hairpin.
T6 sequence (Q14258 189-630 K602E): as the sequence (Q14258 189-630 H505E/K508E/K602E) above, with E317H, E320K counted along it
The target of series [8] is T7, TRIM25 CC-PRY/SPRY K283A/K285A (UniProt Q14258 189-630, K283A;K285A). The series is described as above. The conditions noted are these: protein: recombinant; tags: His-Trx (removed); chain copies: 2; hairpin.
T7 sequence (Q14258 189-630 K283A/K285A): as the sequence (Q14258 189-630 H505E/K508E/K602E) above, with K95A, K97A, E317H, E320K, E414K counted along it
The target in series [9] is T2, TRIM25 CC-PRY/SPRY triple mutant. The experiment in a line: ITC; first of two fitted sites; ITC and filter binding: 20 mM MES pH 6.5, 75 mM NaCl, 0.5 mM TCEP (ITC 20 C, filter binding on ice); NMR: 20 mM Na phosphate pH 6.5, 150 mM NaCl, 2 mM TCEP, 293 K. The conditions noted are these: protein: recombinant; tags: His-Trx (removed); chain copies: 2; hairpin.
In series [10] the target is T3, TRIM25 CC-PRY/SPRY H505E/K508E. Described as above. The conditions noted are these: protein: recombinant; tags: His-Trx (removed); chain copies: 2; hairpin.
Series [11] deals with T4, TRIM25 CC-PRY/SPRY Y463S/Y476S. The series is described as above. The conditions noted are these: protein: recombinant; tags: His-Trx (removed); chain copies: 2; hairpin.
Series [12] concerns the target T5, TRIM25 CC-PRY/SPRY penta-mutant. Described as above. The conditions noted are these: protein: recombinant; tags: His-Trx (removed); chain copies: 2; hairpin.
For series [13], the target named is T6, TRIM25 CC-PRY/SPRY K602E. The series is described as above. The conditions noted are these: protein: recombinant; tags: His-Trx (removed); chain copies: 2; hairpin.
Series [14] concerns the target T7, TRIM25 CC-PRY/SPRY K283A/K285A. The series is described as above. The conditions noted are these: protein: recombinant; tags: His-Trx (removed); chain copies: 2; hairpin.

T1 sequence (Q14258 189-630): as the sequence (Q14258 189-630 H505E/K508E/K602E) above, with E317H, E320K, E414K counted along it
T3 sequence (Q14258 189-630 H505E/K508E): as the sequence (Q14258 189-630 H505E/K508E/K602E) above, with E414K counted along it
TRIM25 PRY/SPRY, sequence (Q14258 439-630): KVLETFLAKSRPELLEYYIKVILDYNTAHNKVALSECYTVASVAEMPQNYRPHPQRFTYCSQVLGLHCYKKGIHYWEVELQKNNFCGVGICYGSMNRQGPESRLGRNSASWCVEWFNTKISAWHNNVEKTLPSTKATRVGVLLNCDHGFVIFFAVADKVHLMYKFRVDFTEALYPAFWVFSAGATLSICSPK

What is called Kd is the free concentration of one partner at which half of the binding sites on the other are occupied at equilibrium, for simple one-to-one binding. Regarding GUAUAGUUUAAAAGGAGAUAACUAUAC (structured_RNA) [pre-let-7a-1@2], the Kd was 5000 ± 1200 nM with TRIM25 PRY/SPRY; 8100 ± 3100 nM with TRIM25 CC; 10.2 ± 3.8 nM in the series with TRIM25 CC-PRY/SPRY [1]; 72 ± 33 nM in the series with TRIM25 CC-PRY/SPRY [2]; 132000 ± 24000 nM in series [3]; 4190 ± 500 nM in series [4]. The Kd in series [5] was determined as 17000 ± 11000 nM; in [6], 124000 ± 28000 nM; with TRIM25 CC-PRY/SPRY K602E [7] it was 2540 ± 120 nM; in [8], 16600 ± 2100 nM; in series [9], 790 ± 160 nM; in [10] it was 484 ± 48 nM. The Kd in [11] was 252 ± 61 nM; in series [12], 1320 ± 370 nM; with TRIM25 CC-PRY/SPRY K602E [13] it was 196 ± 22 nM; in series [14] it was 606 ± 124 nM.

The record behind these values is paper doi:10.1101/2020.05.04.070177, “Mechanistic insights into RNA binding and RNA-regulated RIG-I ubiquitination by TRIM25” (bioRxiv, 2020).
